This passage reports signal relative to the signal for intact 3954-1204-c225v5 results from US20170326260A1.

In the assay the target is partially (~50%) activated 3954-1204-c225v5. In words: sandwich ELISA in human plasma; clone 41 coated as capture, biotinylated detection antibody, streptavidin-HRP, OD 450 nm. Background: In an ELISA, binding on a coated surface is turned into a signal by an enzyme label.

B1: antibody 58-1 (antibody, V domains shown)
VH: QSVEESGGRLVMPGGSLTLTCTVSGIDLSRYGMAWFRQAPGKGLKYIGAISSSGNEDYASWAIGRFTISKTSTTAELKMTSLTTEDTATYFCGRGWLSNNAYMWGPGTLVTVSS
VL: PVLTQTPTPVSAAVGGTVTINCQASQSIYNKNQLSWFQQKPGQPPKLLIHYASTLASGVSSRFKGSGSGTQFTLTISDVQCDDAATYYCLGDFSCSGVDCLVVGGGTEVVVEG
Take B1: the signal relative to the signal for intact 3954-1204-c225v5 was 50 % lower.

B2: antibody 72-3 (antibody, V domains shown)
VH: QSVEESGGRLVMPGGSLTLTCTVSGIDLSHYGMAWFRQAPGKGLEYIGAISSSGNEDYASWPKGRFTISKTSTTVTLKMTSLTTEDTATYFCGRGWLSNNVYMWGPGTLVTVSS
VL: QVLTQTPPSVSAAVGGTVTINCQASQSIYNKNQLSWLQQKPGQPPKVLIHYASTLASGVSSRFKGSGSGTQFTLTISDVQCDDAATYYCLGDFSCSGVDCLSVGGGTEVVVEG
On to B2, for which the signal relative to the signal for intact 3954-1204-c225v5 was 50 % lower.
